Starred links: 1 amine or outer side, 2 acyl side, 3 side chain; linkers in the order of their positions; H or OH if unused. Non-standard residues stand in square brackets, D forms with d. Groups on a side chain read outwards from the residue. No end group written: not given here. *: point of attachment. γGlu = O=C(O)[C@H](CCC(=O)[*:2])N[*:1]; Palmitoyl = CCCCCCCCCCCCCCCC(=O)*; αMeF = C[C@](N)(Cc1ccccc1)C(=O)O; αMeK = C[C@](N)(CCCCN)C(=O)O; αMeS = C[C@](N)(CO)C(=O)O; Aib = CC(C)(N)C(=O)O
T1: glucose-dependent insulinotropic peptide (gastric inhibitory polypeptide) receptor (human, UniProt P48546 22-466)
T1 sequence (looked up): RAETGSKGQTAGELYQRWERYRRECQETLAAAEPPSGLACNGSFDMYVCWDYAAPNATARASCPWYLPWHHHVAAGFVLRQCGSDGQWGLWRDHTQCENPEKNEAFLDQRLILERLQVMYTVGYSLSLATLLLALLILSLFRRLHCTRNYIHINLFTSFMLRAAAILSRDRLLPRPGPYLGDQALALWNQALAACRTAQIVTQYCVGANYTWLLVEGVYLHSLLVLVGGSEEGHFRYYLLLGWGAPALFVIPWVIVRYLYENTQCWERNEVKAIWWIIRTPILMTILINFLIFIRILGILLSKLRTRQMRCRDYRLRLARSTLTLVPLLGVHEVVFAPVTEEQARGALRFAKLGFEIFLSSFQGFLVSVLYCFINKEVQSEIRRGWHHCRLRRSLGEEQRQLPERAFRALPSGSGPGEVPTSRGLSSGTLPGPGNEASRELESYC

B1: SEQ ID NO 70 (peptide)
peptide: H[Aib]EGS[αMeF]TSDV[αMeS]S[αMeF]LEGEAA[αMeK]E[αMeF]IA[αMeF]VV[αMeK]GK([γGlu-Palmitoyl])-NH2
modifications: N-terminus assumed
SMILES: CCCCCCCCCCCCCCCC(=O)N[C@@H](CCC(=O)NCCCC[C@H](NC(=O)CNC(=O)[C@](C)(CCCCN)NC(=O)[C@@H](NC(=O)[C@@H](NC(=O)[C@](C)(Cc1ccccc1)NC(=O)[C@H](C)NC(=O)[C@@H](NC(=O)[C@](C)(Cc1ccccc1)NC(=O)[C@H](CCC(=O)O)NC(=O)[C@](C)(CCCCN)NC(=O)[C@H](C)NC(=O)[C@H](C)NC(=O)[C@H](CCC(=O)O)NC(=O)CNC(=O)[C@H](CCC(=O)O)NC(=O)[C@H](CC(C)C)NC(=O)[C@](C)(Cc1ccccc1)NC(=O)[C@H](CO)NC(=O)[C@](C)(CO)NC(=O)[C@@H](NC(=O)[C@H](CC(=O)O)NC(=O)[C@H](CO)NC(=O)[C@@H](NC(=O)[C@](C)(Cc1ccccc1)NC(=O)[C@H](CO)NC(=O)CNC(=O)[C@H](CCC(=O)O)NC(=O)C(C)(C)NC(=O)[C@@H](N)Cc1c[nH]cn1)[C@@H](C)O)C(C)C)[C@@H](C)CC)C(C)C)C(C)C)C(N)=O)C(=O)O
B2: SEQ ID NO 71 (peptide)
peptide: H[Aib]EGS[αMeF]TSDV[αMeS]S[αMeF]LEGEAA[αMeK]E[αMeF]IA[αMeF]VV[αMeK]K([γGlu-Palmitoyl])G-NH2
modifications: N-terminus assumed
SMILES: CCCCCCCCCCCCCCCC(=O)N[C@@H](CCC(=O)NCCCC[C@H](NC(=O)[C@](C)(CCCCN)NC(=O)[C@@H](NC(=O)[C@@H](NC(=O)[C@](C)(Cc1ccccc1)NC(=O)[C@H](C)NC(=O)[C@@H](NC(=O)[C@](C)(Cc1ccccc1)NC(=O)[C@H](CCC(=O)O)NC(=O)[C@](C)(CCCCN)NC(=O)[C@H](C)NC(=O)[C@H](C)NC(=O)[C@H](CCC(=O)O)NC(=O)CNC(=O)[C@H](CCC(=O)O)NC(=O)[C@H](CC(C)C)NC(=O)[C@](C)(Cc1ccccc1)NC(=O)[C@H](CO)NC(=O)[C@](C)(CO)NC(=O)[C@@H](NC(=O)[C@H](CC(=O)O)NC(=O)[C@H](CO)NC(=O)[C@@H](NC(=O)[C@](C)(Cc1ccccc1)NC(=O)[C@H](CO)NC(=O)CNC(=O)[C@H](CCC(=O)O)NC(=O)C(C)(C)NC(=O)[C@@H](N)Cc1c[nH]cn1)[C@@H](C)O)C(C)C)[C@@H](C)CC)C(C)C)C(C)C)C(=O)NCC(N)=O)C(=O)O
B3: SEQ ID NO 72 (peptide)
peptide: H[Aib]EGS[αMeF]TSDV[αMeS]S[αMeF]LEGEAA[αMeK]E[αMeF]IA[αMeF]VVK([γGlu-Palmitoyl])GG-NH2
modifications: N-terminus assumed
SMILES: CCCCCCCCCCCCCCCC(=O)N[C@@H](CCC(=O)NCCCC[C@H](NC(=O)[C@@H](NC(=O)[C@@H](NC(=O)[C@](C)(Cc1ccccc1)NC(=O)[C@H](C)NC(=O)[C@@H](NC(=O)[C@](C)(Cc1ccccc1)NC(=O)[C@H](CCC(=O)O)NC(=O)[C@](C)(CCCCN)NC(=O)[C@H](C)NC(=O)[C@H](C)NC(=O)[C@H](CCC(=O)O)NC(=O)CNC(=O)[C@H](CCC(=O)O)NC(=O)[C@H](CC(C)C)NC(=O)[C@](C)(Cc1ccccc1)NC(=O)[C@H](CO)NC(=O)[C@](C)(CO)NC(=O)[C@@H](NC(=O)[C@H](CC(=O)O)NC(=O)[C@H](CO)NC(=O)[C@@H](NC(=O)[C@](C)(Cc1ccccc1)NC(=O)[C@H](CO)NC(=O)CNC(=O)[C@H](CCC(=O)O)NC(=O)C(C)(C)NC(=O)[C@@H](N)Cc1c[nH]cn1)[C@@H](C)O)C(C)C)[C@@H](C)CC)C(C)C)C(C)C)C(=O)NCC(=O)NCC(N)=O)C(=O)O
B4: SEQ ID NO 73 (peptide)
peptide: H[Aib]EGS[αMeF]TSDV[αMeS]S[αMeF]LEGEAA[αMeK]E[αMeF]IA[αMeF]VK([γGlu-Palmitoyl])[αMeK]GG-NH2
modifications: N-terminus assumed
SMILES: CCCCCCCCCCCCCCCC(=O)N[C@@H](CCC(=O)NCCCC[C@H](NC(=O)[C@@H](NC(=O)[C@](C)(Cc1ccccc1)NC(=O)[C@H](C)NC(=O)[C@@H](NC(=O)[C@](C)(Cc1ccccc1)NC(=O)[C@H](CCC(=O)O)NC(=O)[C@](C)(CCCCN)NC(=O)[C@H](C)NC(=O)[C@H](C)NC(=O)[C@H](CCC(=O)O)NC(=O)CNC(=O)[C@H](CCC(=O)O)NC(=O)[C@H](CC(C)C)NC(=O)[C@](C)(Cc1ccccc1)NC(=O)[C@H](CO)NC(=O)[C@](C)(CO)NC(=O)[C@@H](NC(=O)[C@H](CC(=O)O)NC(=O)[C@H](CO)NC(=O)[C@@H](NC(=O)[C@](C)(Cc1ccccc1)NC(=O)[C@H](CO)NC(=O)CNC(=O)[C@H](CCC(=O)O)NC(=O)C(C)(C)NC(=O)[C@@H](N)Cc1c[nH]cn1)[C@@H](C)O)C(C)C)[C@@H](C)CC)C(C)C)C(=O)N[C@@](C)(CCCCN)C(=O)NCC(=O)NCC(N)=O)C(=O)O
B5: SEQ ID NO 74 (peptide)
peptide: H[Aib]EGS[αMeF]TSDV[αMeS]S[αMeF]LEGEAA[αMeK]E[αMeF]IA[αMeF]K([γGlu-Palmitoyl])V[αMeK]GG-NH2
modifications: N-terminus assumed
SMILES: CCCCCCCCCCCCCCCC(=O)N[C@@H](CCC(=O)NCCCC[C@H](NC(=O)[C@](C)(Cc1ccccc1)NC(=O)[C@H](C)NC(=O)[C@@H](NC(=O)[C@](C)(Cc1ccccc1)NC(=O)[C@H](CCC(=O)O)NC(=O)[C@](C)(CCCCN)NC(=O)[C@H](C)NC(=O)[C@H](C)NC(=O)[C@H](CCC(=O)O)NC(=O)CNC(=O)[C@H](CCC(=O)O)NC(=O)[C@H](CC(C)C)NC(=O)[C@](C)(Cc1ccccc1)NC(=O)[C@H](CO)NC(=O)[C@](C)(CO)NC(=O)[C@@H](NC(=O)[C@H](CC(=O)O)NC(=O)[C@H](CO)NC(=O)[C@@H](NC(=O)[C@](C)(Cc1ccccc1)NC(=O)[C@H](CO)NC(=O)CNC(=O)[C@H](CCC(=O)O)NC(=O)C(C)(C)NC(=O)[C@@H](N)Cc1c[nH]cn1)[C@@H](C)O)C(C)C)[C@@H](C)CC)C(=O)N[C@H](C(=O)N[C@@](C)(CCCCN)C(=O)NCC(=O)NCC(N)=O)C(C)C)C(=O)O

target: T1, glucose-dependent insulinotropic …; test: cell-based or functional assay

Point of comparison: B5, “Primary assay EC50 (cAMP), n1” value 28 nM. Against it:
- B1 — within 1.5-fold, 27 nM
- B2 — within 1.5-fold, 27 nM
- B3 — the same, 28 nM
- B4 — the same, 28 nM

Point of comparison: B4, “Primary assay EC50 (cAMP), n2” value 28 nM. Against it:
- B1 — within 1.5-fold, 27 nM
- B2 — within 1.5-fold, 27 nM
- B3 — the same, 28 nM
- B5 — the same, 28 nM

target: GLP-1 receptor (human, UniProt P43220 24-463); test: cell-based or functional assay

Point of comparison: B1, “Primary assay EC50 (cAMP), Mean pM GLP-1R” value 83 pM. Against it:
- B2 — lower, 7.1 pM
- B3 — lower, 49 pM
- B4 — higher, 146 pM
- B5 — lower, 2.1 pM

Point of comparison: B1, “Primary assay EC50 (cAMP), n1” value 74 pM. Against it:
- B2 — 12-fold lower, 6.2 pM
- B3 — 1.6-fold lower, 46 pM
- B4 — 1.8-fold higher, 130 pM
- B5 — 32-fold lower, 2.3 pM

Point of comparison: B1, “Primary assay EC50 (cAMP), n2” value 92 pM. Against it:
- B2 — 12-fold lower, 8 pM
- B3 — 1.8-fold lower, 52 pM
- B4 — 1.7-fold higher, 160 pM
- B5 — 46-fold lower, 2 pM

target: glucagon receptor (human, UniProt P47871 26-477); test: cell-based or functional assay
Sequence (P47871 26-477): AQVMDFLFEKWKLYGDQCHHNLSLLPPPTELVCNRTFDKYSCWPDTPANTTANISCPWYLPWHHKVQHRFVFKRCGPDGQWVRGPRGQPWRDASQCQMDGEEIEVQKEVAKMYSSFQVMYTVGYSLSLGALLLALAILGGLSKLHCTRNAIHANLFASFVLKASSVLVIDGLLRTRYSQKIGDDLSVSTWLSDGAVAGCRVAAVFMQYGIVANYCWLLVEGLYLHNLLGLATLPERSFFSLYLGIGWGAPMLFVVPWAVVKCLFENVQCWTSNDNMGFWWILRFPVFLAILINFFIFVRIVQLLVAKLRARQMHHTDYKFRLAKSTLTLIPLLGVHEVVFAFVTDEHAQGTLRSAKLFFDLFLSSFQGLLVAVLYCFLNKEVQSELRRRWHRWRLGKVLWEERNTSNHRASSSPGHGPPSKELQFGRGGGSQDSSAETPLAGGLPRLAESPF

Point of comparison: B3, “Primary assay EC50 (cAMP), n1” value 28 nM. Against it:
- B1 — within 1.5-fold, 27 nM
- B2 — within 1.5-fold, 27 nM
- B4 — the same, 28 nM
- B5 — the same, 28 nM

Point of comparison: B3, “Primary assay EC50 (cAMP), n2” value 28 nM. Against it:
- B1 — within 1.5-fold, 27 nM
- B2 — within 1.5-fold, 27 nM
- B4 — the same, 28 nM
- B5 — the same, 28 nM
